Assay results as given in PMC6795808, “N6-methyladenosine modification of circNSUN2 facilitates cytoplasmic export and stabilizes HMGA2 to promote colorectal liver metastasis”.

Key:
IGF2BP2 WT = IGF2BP2 WT (UniProt Q9Y6M1 1-599); assay: EMSA; dose-dependent; confirmed by supershift; LightShift Chemiluminescent RNA EMSA kit binding buffer (composition not stated), 30 min, room temperature; 6% native PAGE, 0.5x TBE; supershift preincubation with antibody 20 min at 0 C; conditions: protein: recombinant; tags: FLAG; label: 3'-biotin
Sequence of IGF2BP2 WT (Q9Y6M1 whole entry): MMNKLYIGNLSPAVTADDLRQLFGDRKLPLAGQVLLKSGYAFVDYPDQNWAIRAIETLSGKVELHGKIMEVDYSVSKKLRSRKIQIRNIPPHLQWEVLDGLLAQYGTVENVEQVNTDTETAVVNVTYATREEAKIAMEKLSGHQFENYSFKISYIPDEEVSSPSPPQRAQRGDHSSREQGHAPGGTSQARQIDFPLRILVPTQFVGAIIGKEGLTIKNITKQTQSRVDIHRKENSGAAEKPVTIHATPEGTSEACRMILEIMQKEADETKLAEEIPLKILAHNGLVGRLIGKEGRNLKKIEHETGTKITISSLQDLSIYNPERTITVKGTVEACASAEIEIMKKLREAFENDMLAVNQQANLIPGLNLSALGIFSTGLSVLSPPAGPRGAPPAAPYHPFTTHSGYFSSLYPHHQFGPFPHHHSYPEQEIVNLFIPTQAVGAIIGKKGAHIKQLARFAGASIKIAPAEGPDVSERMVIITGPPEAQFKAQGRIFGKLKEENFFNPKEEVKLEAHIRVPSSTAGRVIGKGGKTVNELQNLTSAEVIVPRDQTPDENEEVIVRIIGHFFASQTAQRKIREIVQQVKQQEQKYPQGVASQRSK

YTHDC1 WT = YTHDC1 WT (UniProt Q96MU7 1-727); assay: EMSA; LightShift Chemiluminescent RNA EMSA kit binding buffer (composition not stated), 30 min, room temperature; 6% native PAGE, 0.5x TBE; supershift preincubation with antibody 20 min at 0 C; conditions: protein: recombinant; tags: FLAG; label: 3'-biotin

## CCUCAUCAUAAGGUAUCCUG (ssRNA) [circNSUN2 wild type (IGF2BP2 probe)]
IGF2BP2 WT
  binding result: binds

B1: circNSUN2-m6A wild type (ssRNA)
RNA: AUAAGGUAUCCUGAAGAACU
modifications: m6A not marked in the printed sequence; whether A18 is methylated in the probe is unclear
YTHDC1 WT
  binding result: binds
